This is an account of results in US12312397B2, “Anti-O2 antibodies and uses thereof” (priority 2016, dated 2025).

For experiment [1], the system named is antibiotic resistant Klebsiella pneumoniae strains. In kind it is in vivo. As for the experimental part: (§1) C57/BL6 mice were obtained from Jackson Laboratories and maintained in a special pathogen-free facility. All animal experiments were conducted in accordance with Institutional Animal Care and Use Committee (IACUC) protocol and guidance. K. pneumoniae strains were grown on agar plates overnight and diluted in saline at proper concentration. The inoculum titer was determined by plating a serial dilution of bacteria onto agar plates prior to and post challenge. In acute pneumonia models, C57/BL6 mice were inoculated with 1e4 to 2e8 colony-forming units (CFU) of K. pneumoniae clinical isolates in 50 μl saline intranasally. Anti-K pneumoniae monoclonal antibodies (mAbs) and human IgG1 control antibodies were given 1-24 hour post bacterial challenge (therapeutic dosing). Mouse survival was monitored daily until up to day 8. Survival data of representative experiments were plotted in Graphpad Prism software.
The lethal pneumonia model as described in Example 9 was used to assess the activity of anti-O2 LPS antibodies in combination with an antibiotic. Both antibiotic and antibody were administered 1 hour after bacterial infection.
50 mg/kg of meropenem and 2 mg/kg of antibody were administered at 1, 2, 4, 6, and 24 hour after bacterial infection, as described for the antibody and antibiotic combination studies in Examples 9 and 10.

The subject of experiment [2] is O2 LPS activation of NF-κB in RAW264.7-lux cells. The experiment is described as follows: LPS neutralization assay (NF-κB luciferase, RAW264.7-lux), O2 LPS. Format: cell-based, murine. Details: key to LPS Neut O2: +++: Strongly positive activity; +: Positive activity; +/−: Somewhat positive depending upon the test conditions. In a few lines: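 Serially diluted mAbs (human IgG1) pre-mixed 1:1 with LPS at 4 °C for 1 hr, then diluted 1:10 onto RAW264.7-lux cells carrying an NF-κB-driven firefly luciferase; 2.5 h at 37 °C. Luminescence read; % inhibition relative to no-antibody and negative-control mAb wells.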

A further experiment concerns the target O2 LPS. As to the kind of experiment: Octet binding assay, O2 LPS. To be noted: average; calculated from on-rate and off-rate of Octet sensorgram; read-out: affinity constant (KD) to O2 LPS. Details: species or system Klebsiella pneumoniae. As for the experimental part: The interaction of anti-O2 LPS mAbs with O1 and O2 LPS was further tested in solution phase by Octet platform. This platform provides a powerful tool to measure the rate of biomolecular complex formation and complex stability in a more biologically meaningful setting. Briefly, Protein A coated sensors were coated with 0.2 μg/mL anti-O2 LPS mAbs for 10 minutes before being dipped into solution containing 2 μg/mL O1 or O2 LPS in Kinetics buffer (ForteBio, dilute 10× to 1× with PBS). Changes in the number of molecules bound to the biosensor caused a shift in the interference pattern that was recorded in real time. […] The affinity constant (KD) of Class III mAbs to O2 LPS was calculated based on the on-rate and off-rate from Octet sensorgram.

The subject of the next experiment is K. pneumoniae O2. As to the kind of experiment: Mouse protection models (O2), Table 7 summary. Details: key: +++: Strongly positive activity; +: Positive activity; +/−: Somewhat positive depending upon the test conditions. Format: in vivo, Klebsiella pneumoniae. The settings on record: mouse pneumonia models. How it is done:
As described in more detail in below, anti-O2 LPS mAbs were tested for: 1) binding to O1 and O2 LPS (see Example 5); 2) LPS neutralization (LPS-Neut) against O1 and O2 LPS (see Example 7); 3) OPK against capsule mutant strain 43816ΔcpsB lux (O1) and 8570ΔcpsB lux (O2) (see Example 8); and 4) protective activity in pneumonia models (see Example 9). O2 LPS mAbs were subsequently divided into three classes based on their in vitro activities. Class I mAbs were characterized as Binding (O1+O2+)/OPK (O1−O2+); Class 2 mAbs were characterized as Binding (O1+O2+)/OPK (O1+O2+); and Class III mAbs were characterized as Binding (O1±O2+)/OPK (O1−O2+).
as §1
Mice were challenged with 2e8 CFU of Klebsiella pneumoniae Carbanpenemase (KPC) strain Kp961842_O2 or with 3e8 CFU of KPC strain Kp977778_O2, followed by the administration of anti-O2 mAbs. When administered at a concentration of 2 mg/kg 1 hour post bacterial infection, Class III anti-O2 LPS mAbs KPN42, KPN179-IgG1, and KPS44v2017 protected mice from lethal bacterial challenge with the multi-drug resistant KPC strains Kp961842_O2 (FIG. 6, left panel, and FIG. 10) and Kp977778_O2 (FIG. 6B, right panel).

Experiment [3] concerns K. pneumoniae 8570ΔcpsBLux (O2). The experiment is described as follows: Opsonophagocytic killing (OPK) assay, O2 capsule mutant. Format: cell-based, Klebsiella pneumoniae. Details: key to D Capsule OPK O2: +++: Strongly positive activity; +: Positive activity; +/−: Somewhat positive depending upon the test conditions. The settings on record: capsule mutant strain 8570ΔcpsB lux (O2). In a few lines:
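Luminescent capsule-deficient K. pneumoniae strains were mixed with DMF-differentiated HL-60 cells, 1:10 baby rabbit serum and anti-O2 LPS mAbs (2 ng–2.5 μg/mL), then shaken for 2 h at 37 °C. Killing % came from luminescence (RLU) against no-antibody and negative-control mAb wells, with >40% scored as positive.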

The subject of the next experiment is KPC strain Kp977778_O2. As to the kind of experiment: Lethal pneumonia model, KPC strain Kp977778_O2. To be noted: C57/BL6 mice, 3e8 CFU; mAb 2 mg/kg 1 hour post infection; survival. Format: in vivo, Klebsiella pneumoniae.

B1: KPN179: Class III anti-O2 antigen human mAb; VH SEQ ID NO: 53, VL SEQ ID NO: 54 (antibody, V domains shown)
VH: EVQVVESGGGLVKPGGSLRLSCAASGFTFNNAWMNWVRQAPGKGLEWVGRIKRKADGETTDYPASVKGRFTVSRDDSKNTIYLQMNSLKTEDTAIYYCTTRIVTTNDYWGQGTLVTVSS
VL: QSALTQPPSVSGSPGQSVTISCTGTSSDVGYYDYVSWYQQHHPGKAPKHMIYDVNKRPSGVPDRFSGSKSGNTASLTISGLQAEDEADYYCCSYAGGDTFVFGTGTKVTVL
modifications: Description of Artificial Sequence: SyntheticKPN179 VH polypeptide; Description of Artificial Sequence: SyntheticKPN179 VL polypeptide
In general, Kd refers to the concentration at which binding is half-saturated. B1: the “time post infection up to which combination with meropenem protects better than control mAb and meropenem” value in experiment [1] (50 mg/kg meropenem + 2 mg/kg antibody given 1, 2, 4, 6, 24 hour after infection, mice) is reported as “up to 4 hours”. The “protection of combination with meropenem compared to antibody or antibiotic monotherapy” value in experiment [1] (meropenem 50 mpk + antibody 0.2 mpk, both 1 hour after infection, mice) is “significantly improved protection”. In experiment [1] (sub-therapeutic antibody dose, % survival of mice), the “synergy with meropenem in lethal pneumonia model” value is reported as “strong synergy”. In addition, the “LPS Neut O2” value in experiment [2] (Table 7 summary) is reported as “+/−”. Moreover, the “neutralization of LPS-O2” value in experiment [2] (secondary screening) is “did not show LPS-neutralizing activity”. In addition, the Kd at O2 LPS was 7.98 nM. In addition, the “Mouse protection models (O2)” value in the experiment with K. pneumoniae O2 was “+++”. In addition, in experiment [3], the “D Capsule OPK O2” value was “+++”. The “protection from lethal bacterial challenge, Kp977778_O2” value with KPC strain Kp977778_O2 was “protected”.
